Positions count from the first letter of the chain named.
Key:
[1] = system: T1, dCas12j-8 D512R D512R;D369A;E567A;D658A (bacteriophage (metagenome)); conditions: HEK293T cells; panel 1c (compare within a panel only); scale: mean GFP / mean GFP of wild type, printed, no background subtraction
T1 sequence: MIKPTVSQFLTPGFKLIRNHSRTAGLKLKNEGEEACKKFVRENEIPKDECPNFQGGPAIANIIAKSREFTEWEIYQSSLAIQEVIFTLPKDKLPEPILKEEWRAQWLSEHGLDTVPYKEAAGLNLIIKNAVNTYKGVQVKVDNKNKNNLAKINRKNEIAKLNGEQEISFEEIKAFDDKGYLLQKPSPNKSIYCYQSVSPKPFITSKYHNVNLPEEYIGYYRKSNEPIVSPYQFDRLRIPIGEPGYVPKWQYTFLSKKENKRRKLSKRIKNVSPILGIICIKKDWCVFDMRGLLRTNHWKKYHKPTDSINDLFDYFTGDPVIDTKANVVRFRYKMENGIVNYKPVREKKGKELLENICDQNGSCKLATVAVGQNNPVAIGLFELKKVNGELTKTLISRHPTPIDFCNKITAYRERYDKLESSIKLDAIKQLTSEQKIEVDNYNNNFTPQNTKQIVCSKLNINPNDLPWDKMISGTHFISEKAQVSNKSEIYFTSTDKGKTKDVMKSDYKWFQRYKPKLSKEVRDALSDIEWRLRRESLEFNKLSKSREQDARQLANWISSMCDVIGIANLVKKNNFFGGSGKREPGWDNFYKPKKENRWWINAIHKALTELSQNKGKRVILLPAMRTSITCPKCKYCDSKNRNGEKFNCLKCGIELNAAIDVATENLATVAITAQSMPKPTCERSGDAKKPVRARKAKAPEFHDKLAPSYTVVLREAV

[2] = system: T2, dCas12j-8 E609R E609R;D369A;E567A;D658A (bacteriophage (metagenome)); conditions: HEK293T cells; panel 1c (compare within a panel only); scale: mean GFP / mean GFP of wild type, printed, no background subtraction
T2 sequence: T1 sequence with R512D, E609R

[3] = system: T3, dCas12j-8 D527R D527R;D369A;E567A;D658A (bacteriophage (metagenome)); conditions: HEK293T cells; panel 1c (compare within a panel only); scale: mean GFP / mean GFP of wild type, printed, no background subtraction
T3 sequence: T1 sequence with R512D, D527R

[4] = system: T4, dCas12j-8 E258R+D495R E258R;D495R;D369A;E567A;D658A (bacteriophage (metagenome)); conditions: HEK293T cells; panel 1d (compare within a panel only); scale: mean GFP / mean GFP of wild type, printed, no background subtraction
T4 sequence: T1 sequence with E258R, D495R, R512D

CUUUCAAGACUAAUAGAUUGCUCCUUACGAGGAGACACUCCCUAUCAGUGAUAGAG / TTNACTCCCTATCAGTGATAGAG / CTCTATCACTGATAGGGAGTNAA [TetO]
binding signal [1]: 1.07
binding signal [2]: 0.336
binding signal [3]: 1.56
binding signal [4]: 3.18
